Biological target: HLA-A2.1 (human), A*02:0
Assay: cell-based or functional assay

Specific 51Cr release (%) by CTL A2 149, E:T 10, BT 549 targets, with anti-A2 (53 without): 37%
Specific 51Cr release (%) by CTL A2 149, E:T 10, MCF7 targets, with anti-A2 (38 without): 13%
Specific 51Cr release (%) by CTL A2 149, E:T 10, MDA 231 targets, with anti-A2 (24 without): 5%
Specific 51Cr release (%) by CTL A2 149, E:T 10, Ramos A2.1 targets, with anti-A2 (39 without): 12%
Specific 51Cr release (%) by CTL A2 149, E:T 10, SW 480 targets, with anti-A2 (55 without): 26%
Specific 51Cr release (%) by CTL A2 264, E:T 10, BT 549 targets, with anti-A2 (79 without): 47%
Specific 51Cr release (%) by CTL A2 264, E:T 10, MCF7 targets, with anti-A2 (79 without): 38%
Specific 51Cr release (%) by CTL A2 264, E:T 10, MDA 231 targets, with anti-A2 (31 without): 10%
Specific 51Cr release (%) by CTL A2 264, E:T 10, Ramos A2.1 targets, with anti-A2 (43 without): 0%
Specific 51Cr release (%) by CTL A2 264, E:T 10, SW 480 targets, with anti-A2 (59 without): 17%
Substance: A2-specific monoclonal antibody PA2.1 (ATCC HB 117)

— patent publication US20030064916A1
